In patent publication US20260234242A1 (HAINAN SIMCERE ZAIMING PHARMACEUTICAL, published 2026):
Residue numbers refer to the chain shown, from its start. Blank lines part the entries; values can stand above or below the binder they belong to.

What was measured:
[1] = target: T1, his-tagged human CDH6 extracellular region protein (hCDH6 ECD-his) (human, UniProt P55285 19-615); assay: ELISA, coated antigen; ELISA, coated hCDH6 ECD-his; plateau signal
T1 construct: also called Human CDH6-his; hCDH6-his; not shown: his tag
T1 sequence: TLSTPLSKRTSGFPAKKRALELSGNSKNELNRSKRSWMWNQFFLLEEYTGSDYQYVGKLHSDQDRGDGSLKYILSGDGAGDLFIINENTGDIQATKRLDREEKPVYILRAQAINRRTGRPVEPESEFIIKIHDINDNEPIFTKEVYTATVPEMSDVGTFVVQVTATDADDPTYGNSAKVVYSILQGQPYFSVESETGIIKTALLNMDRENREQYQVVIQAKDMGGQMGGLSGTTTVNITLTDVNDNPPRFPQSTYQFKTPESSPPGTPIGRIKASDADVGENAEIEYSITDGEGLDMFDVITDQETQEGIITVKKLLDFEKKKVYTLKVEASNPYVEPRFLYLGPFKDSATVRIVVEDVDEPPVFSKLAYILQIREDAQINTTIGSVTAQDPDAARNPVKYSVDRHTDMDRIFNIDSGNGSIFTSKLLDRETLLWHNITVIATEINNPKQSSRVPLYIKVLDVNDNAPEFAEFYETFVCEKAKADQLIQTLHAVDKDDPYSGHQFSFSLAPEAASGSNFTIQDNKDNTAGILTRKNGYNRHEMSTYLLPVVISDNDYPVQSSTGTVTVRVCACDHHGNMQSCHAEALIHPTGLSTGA
Procedure: (§1) Human CDH6 protein (hCDH6 ECD-his, conventionally synthesized), monkey CDH6 protein (cynoCDH6 ECD-his, conventionally synthesized; the cynoCDH6 ECD sequence was derived from Uniprot #A0A2K5TW62 (19-615)), and murine CDH6 protein (mCDH6 ECD-his, conventionally synthesized; the mCDH6 ECD sequence was derived from Uniprot #P97326 (19-615)) were diluted with PBS to a final concentration of 1 μg/mL, and added to a 96-well ELISA plate at 100 μL/well. The plate was incubated at 4° C. overnight. The next day, the plate was washed 3 times with a plate washing solution (PBS+0.01% (v/v) Tween 20), and a blocking buffer (PBS+0.01% (v/v) Tween 20+2% (w/w) BSA) was added for blocking at room temperature for 2 h. The blocking buffer was discarded, and the plate was washed 3 times. The chimeric antibodies were diluted with 1% BSA+PBS (purchased from Cytiva, Cat. No. SH30264.01) and added to the 96-well plate at 50 μL/well. After incubation at 37° C. for 2 h, the plate was washed 3 times with a plate washing solution. […] The plate was incubated at 37° C. for 1 h and then washed 5 times with a plate washing solution. A TMB substrate (purchased from Seracare, Cat. No. 5120-0077) was added at 50 μL/well and incubated at room temperature for 10 min, then a stop solution (1.0 N HCl) was added at 50 μL/well. OD450 nm values were read using a microplate reader (Biotek). Analysis was performed by the GraphPad Prism software, data were fitted, and EC50 values were calculated. The chimeric antibodies tested all had strong binding to the human CDH6 protein, the monkey CDH6 protein, and the murine CDH6 protein.

[2] = target: T1, his-tagged human CDH6 extracellular …; assay: ELISA, coated antigen
Procedure: as §1

[3] = target: T1, his-tagged human CDH6 extracellular …; assay: SPR Biacore 8K, antibody captured on Protein A
Procedure: The affinity of the antibody for the antigen was determined by a multi-cycle kinetic method using a BIAcore 8K instrument. In each cycle, the antibody to be tested was captured using a Protein A chip (purchased from GE, Cat. No. 29-1275-56), and then the antigen human CDH6 protein (hCDH6-his, conventionally synthesized) was injected. The association and dissociation processes of the antibody with the antigen protein were recorded, and finally, the chip was regenerated using Glycine pH 1.5, wherein the mobile phase was HBS-EP+ (10 mM HEPES, 150 mM NaCl, 3 mM EDTA, 0.05% surfactant P20, and 1 mM Ca), the flow rate was 30 μL/min, the association time was 240 s, the dissociation time was 300 s, the regeneration time was 30 s, the detection temperature was 25° C., and the antigen concentration was 31.25-1000 nM. The data were analyzed using Biacore 8K analysis software (version No. 2.0) based on the 1:1 binding model to fit the antibody-antigen binding kinetic parameters, including the association rate constant ka, the dissociation rate constant kd, and the equilibrium dissociation constant KD. The affinity values of the control antibody DS-H01L02 were undetectable. Antibodies not shown in the table had undetectable affinity values.

Max OD450 [1]: 2.14 OD450
B1: CHI-CDH6-4 (antibody, human IgG1, kappa, V domains shown)
VH: QVQLQQSGPELVKPGASVKISCKASGYAFSNFWMNWVKQRPGKGLEWIGWIYPGDGDTNYNGKFKDKATLTADKSSSTAYIQLSSLTSEDSAVYFCARLYDAWGFFDYWGQGTTLTVSS
VL: QIVLTQSPAIMSASPGQKVTITCSASSSVNYMHWYQQKLGSSPKLWIYDKSKLAPGVPARFSGSGSGTSYSLTISSMEAEDAASYFCHQWSSYPPMTFGGGTKLEIKR
notes: also called CH1-CDH6-4; chimeric antibody of murine CDH6-4

EC50 [2]: 0.034 nM
Max OD450 [2]: 2.24 OD450
Kd [3]: 5.72 nM
koff [3]: 0.000201 s⁻¹
kon [3]: 35200 M⁻¹ s⁻¹
B2: CHI-CDH6-11 (antibody, human IgG1, kappa, V domains shown)
VH: QIQLQQSGPELVKPGASVRISCKASGYTFTDYYITWVKLRPGQGLEWIGWIYPGSVNIKYNEKFKGKATLTVDTSSSTAYMQLNSLTSEDSAVYFCARGGYSWFPYWGQGTLVTVSA
VL: NIVMTQSPKSMSMSVGERVTLSCKASENVHTYVSWYQQKPEQSPKLLFYGASTRNTGVPDRFTGSGSATDFTLTISSVQAEDLADYYCGQSYSYPYTFGSGTKLEIKR
notes: also called chimeric antibody of murine CDH6-11

Max OD450 [1]: 1.79 OD450
B3: CHI-CDH6-5 (antibody, human IgG1, kappa, V domains shown)
VH: QVQLQQSGAELVRPGTSVKMSCKAAEYTFTNYWIGWVKQRPGHGLEWIGDLYPGGDHANYNEKFEGKATLTADTSSSTAYMQLSSLTSEDSAIYYCARGMLTTGFDSWGQGTTLTVSS
VL: DIVMSQSPSSLAVSAGEKVTMSCKSSQSLFNSRTRKNYLAWYQQKPGQSPKLLIYWASTRESGVPDRFTGSGSGTDFTLTISSVQAEDLAVYYCKQSYYLRTFGGGTKLEIKR
notes: also called CH1-CDH6-5; chimeric antibody of murine CDH6-5

EC50 [2]: 0.04 nM
Max OD450 [2]: 2.23 OD450
Kd [3]: 8.87 nM
koff [3]: 0.00585 s⁻¹
kon [3]: 659000 M⁻¹ s⁻¹
B4: CHI-CDH6-1 (antibody, human IgG1, kappa, V domains shown)
VH: QVQLQQPGAELVRPGSSVKLSCKASGYTFTNYWMHWVKQRPIEGLEWIGDIDPSHSETHYTQKFKDKATLTVDKSSSTAYMQLSSLTSEDSAVYYCARGDLGRFDYWGQGTTLTVSS
VL: DIVLTQSPASLAVSLGQRATISCRASESVSIHGTHLMHWYQQKSGQPPKLLIYAASNLESGVPARFSGSGSETDFTFNIHPVEEEDAATYFCQQSFEDPWTFGGGTKLEIKR
notes: also called CHI-hCDH6-1; CH1-CDH6-1

EC50 [2]: 0.025 nM
Max OD450 [2]: 2.03 OD450
Kd [3]: 20.3 nM
koff [3]: 0.00364 s⁻¹
kon [3]: 179000 M⁻¹ s⁻¹
B5: CHI-CDH6-10 (antibody, human IgG1, kappa, V domains shown)
VH: QVQLQQPGAELVKPGTSVKMSCKASGYTFTSDWIAWVKQRPGQGLEWIGDIYPGSGRTHNNEKFNFKATLTVDTSSNTAYMQLSSLTSEDSAVYFCARPMLGRFDYWGQGTTLTVSS
VL: B4 VL with S44P, F77L, W100F, G104S
notes: also called chimeric antibody of murine CDH6-10

EC50 [2]: 0.034 nM
Max OD450 [2]: 2.18 OD450
Kd [3]: 58.6 nM
koff [3]: 0.00508 s⁻¹
kon [3]: 86800 M⁻¹ s⁻¹
B6: CHI-CDH6-6 (antibody, human IgG1, kappa, V domains shown)
VH: EVQLQQSGPELVKPGDSVKMSCKASGYTFTDYYMAWVRQSHRKSLEWIGYIFPNSGGTDYSQKFKGKATLTVDKSSSTVYMELHSLTSEDSAVYYCARELGADYGDYYAMDHWGQGTSVSVSS
VL: DIQMTQSPASLSASVGETVTITCRASENIDSYLAWYQQKQGKSPQLLVYSATLLADGVPSRFSGSGSGTQYSLKINSLKSEDVARYYCQHYYRTPPTFGSGTKLEIKR
notes: also called CHI-hCDH6-6; chimeric antibody of murine CDH6-6

Max OD450 [1]: 1.78 OD450
B7: CHI-CDH6-7 (antibody, human IgG1, kappa, V domains shown)
VH: EVKLVESGGGLVKPGGSLKVSCAASGFTFSDHGMAWVRQAPGKGPEWVAFISNLAYSIYYADTVTGRFTISRENAKNTLYLEMSSLRSEDTAMYYCARVYVKWYFDVWGAGTTVTVSS
VL: B6 VL with Y49F, S50A, K79Q, R93S, P96L, S100A, I106L
notes: also called CH1-CDH6-7; chimeric antibody of murine CDH6-7

EC50 [2]: 0.033 nM
Max OD450 [2]: 2.31 OD450
Kd [3]: 31.2 nM
koff [3]: 0.00378 s⁻¹
kon [3]: 121000 M⁻¹ s⁻¹
B8: CHI-CDH6-8 (antibody, human IgG1, kappa, V domains shown)
VH: EVQLQQSGPELVKPGDSVKMSCKASGYTFTDYYMAWIKQNHGKSLEWIGYIYPNNGGTDYNQKFRGKATLTVDKSSSAAYMELHSLTSEDSAVYYCAREIGTLYGDYYAMDYWGQGTSVTVSS
VL: B6 VL with S50T, K79Q, R93S
notes: also called chimeric antibody of murine CDH6-8

EC50 [2]: 0.027 nM
Max OD450 [2]: 2.07 OD450
Kd [3]: 3.68 nM
koff [3]: 0.00185 s⁻¹
kon [3]: 503000 M⁻¹ s⁻¹
B9: CHI-CDH6-2 (antibody, human IgG1, kappa, V domains shown)
VH: EVQLQQSGPELVKPGASVRISCKASGYTFTDYYMNWVKQSHGKSLEWIGDIDPNNANTTYNQKFKGKATLTVDKSSSTAYMELRSLTSEDSAVYSCASFGYDVEWFGYWGQGTLVTVSA
VL: QIVLTQSPALMSASPGEKVTMTCSASSSVSYMYWYQQKPRSSPKPWIYLTSNLASGVPARFSGSGSGTSYSLTISSMEAEDAATYYCQQWSSNPFTFGSGTKLEIKR
notes: also called chimeric antibody of murine CDH6-2

EC50 [2]: 0.009 nM
Max OD450 [2]: 2.62 OD450
Kd [3]: 78.1 nM
koff [3]: 0.00184 s⁻¹
kon [3]: 23600 M⁻¹ s⁻¹
B10: CHI-CDH6-13 (antibody, human IgG1, kappa, V domains shown)
VH: DVQLQESGPGLVKPSQSLSLTCSVTGYSITKDSYWNWIRQFPGSKLEWMGFISYDGSRHYNPSLKNRISITRDTSKNQFFLQLNSVTTEDTATYYCARRDYADYWGQGTTLTVSS
VL: B9 VL with S14F, S26T, M32I, S75N, M77L, N93I, F95Y, S99G
notes: also called chimeric antibody of murine CDH6-13

EC50 [2]: 0.016 nM
Max OD450 [2]: 2.58 OD450
Kd [3]: 138 nM
koff [3]: 0.00159 s⁻¹
kon [3]: 11600 M⁻¹ s⁻¹
B11: CHI-CDH6-9 (antibody, human IgG1, kappa, V domains shown)
VH: QVQLQQPGAELVKPGASVKLSCKASGYTFTGYWMHWVRQRPGQGLEWIGEINPNNGGTNCNEQFKNKATLTVDKSSSTAYMQLSSLTSEDSAVFYCTISFGNYLFFDVWGAGTTVTVSS
VL: DIQMTQSPASLAASVGETITITCQASENIYFSLAWYQQKQGKSPQLLIYNANTLEDGVPSRFVGSGSGTQYSMKINSIQPEDTATYFCDQTYDFPWTFGGGTKLEIKR
notes: also called chimeric antibody of murine CDH6-9

Max OD450 [1]: 2.56 OD450
B12: CHI-CDH6-3 (antibody, human IgG1, kappa, V domains shown)
VH: QVQLQQPGAELVKPGASVKLSCKASGYTFTSYWIHWVKQRPGQGLEWIGEINPSNGVTNCNENFKSKATLTVDKSSSTAYMQLSSLTSEDSAVYYCTIPNLLWWYFDVWGAGTTVTVSS
VL: DIQMTQSPASLSVSVGETVTITCRASENIYSNLAWYQQKQGKSPQLLVYEATNLADGVPSRFSGSGSGTQYSLKINSLQSEDFGSYYCQHFWGTLWTFGGGTKLEIKR
notes: also called CH1-CDH6-3; chimeric antibody of murine CDH6-3

EC50 [2]: 0.043 nM
Max OD450 [2]: 2.32 OD450
Kd [3]: 53.5 nM
koff [3]: 0.00267 s⁻¹
kon [3]: 49900 M⁻¹ s⁻¹
B13: NOV0712 (antibody, human IgG1, kappa, V domains shown)
VH: QVQLLESGGGLVQPGGSLRLSCAASGFTFSSHGMHWVRQAPGKGLEWVSVISGSGSNTGYADSVKGRFTISRDNSKNTLYLQMNSLRAEDTAVYYCARQWGSYAFDSWGQGTLVTVSS
VL: DIQMTQSPSSLSASVGDRVTITCRASQSISSYLNWYQQKPGKAPKLLIYAVSTLQSGVPSRFSGSGSGTDFTLTISSLQPEDFATYYCQQSGTFPPTTFGQGTKVEIKR
notes: Positive control, variable regions from WO2018212136A1; also called positive control anti-human CDH6 antibody
